This passage reports Kd results from paper PMC11617674 (2024).

The target of this test is T1, GlnK (Escherichia coli (strain …, UniProt P0AC55,P0AC55,P0AC55)).
T1 chain 1: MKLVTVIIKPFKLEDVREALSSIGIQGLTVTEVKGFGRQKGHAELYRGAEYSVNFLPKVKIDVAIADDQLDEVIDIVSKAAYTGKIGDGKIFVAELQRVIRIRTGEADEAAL
T1 chain 2: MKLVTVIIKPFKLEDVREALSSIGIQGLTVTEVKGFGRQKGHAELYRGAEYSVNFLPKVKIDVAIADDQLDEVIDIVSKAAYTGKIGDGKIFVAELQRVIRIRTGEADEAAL
T1 chain 3: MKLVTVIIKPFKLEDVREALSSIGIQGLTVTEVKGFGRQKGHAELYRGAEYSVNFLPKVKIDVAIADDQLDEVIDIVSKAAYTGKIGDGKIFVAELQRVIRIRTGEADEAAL
The test is described as follows: BLI (His-PII trimer on sensor), ADP.

B1: UmpH (protein)
chain: MTIKNVICDIDGVLMHDNVAVPGAAEFLHGIMDKGLPLVLLTNYPSQTGQDLANRFATAGVDVPDSVFYTSAMATADFLRRQEGKKAYVVGEGALIHELYKAGFTITDVNPDFVIVGETRSYNWDMMHKAAYFVANGARFIATNPDTHGRGFYPACGALCAGIEKISGRKPFYVGKPSPWIIRAALNKMQAHSEETVIVGDNLRTDILAGFQAGLETILVLSGVSSLDDIDSMPFRPSWIYPSVAEIDVI
One may read the Kd as the equilibrium constant for the complex coming apart. Low readings indicate higher affinity, high ones lower affinity. In the case of B1, the Kd worked out at 7.8 nM.
